Data on 6 molecules can be found in PMC10823258 (Proceedings of the National Academy of Sciences of the …, 2024).

Numbering of substitutions follows the chain as printed. In names and notes the source's numbering stands. Like-named read-outs stand apart in the source and are kept apart here.

In one data set the target is T1, wheat eIF4E (Triticum aestivum, UniProt P29557).
T1 sequence (P29557 39-215): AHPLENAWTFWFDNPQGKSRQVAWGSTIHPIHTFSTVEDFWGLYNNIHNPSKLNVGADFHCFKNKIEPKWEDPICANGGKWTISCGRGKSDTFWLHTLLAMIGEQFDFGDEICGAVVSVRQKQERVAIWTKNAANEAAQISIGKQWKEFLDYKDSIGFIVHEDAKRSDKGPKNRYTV
Nature of the data set: isothermal titration calorimetry. Type of data set: binding. In general terms: Isothermal titration calorimetry measures the heat released or taken up as one component is titrated into another.

The target in data set [1] is T2, human eIF4E (human, UniProt P06730). Briefly: ITC.
The target of data set [2] is T2, human eIF4E. Nature of the data set: ITC. This is another data set of the same source.
The target in data set [3] is T2, human eIF4E. Briefly: ITC. This is another data set of the same source.
The target of another data set is GB1-human eIF4E (human, UniProt P06730). Nature of the data set: ITC.
The target of data set [4] is T2, human eIF4E. Nature of the data set: ITC. The source holds these as a separate data set.

For orientation: Kd means the equilibrium constant for the complex coming apart. High values mean weaker binding, low ones tighter binding. `C[n+]1cn([C@@H]2O[C@H](COP(=O)(O)OP(=O)(O)OP(=O)(O)O)[C@@H](O)[C@H]2O)c2nc(N)[nH]c(=O)c21` [m7GTP] displayed a Kd on wheat eIF4E of 1800 ± 800 nM.

B1: SCV PTE G18C (structured_RNA)
RNA: GGUUGCUCGACUGUGAGCGGACCUACCCACUGUGGAAACACCACAGGAACUUCCAACCUUCGGGUGGCGAGGUAGGGCAGAAGAGUGACC
For B1, the binding result with human eIF4E [1] is “no binding”.

B2: SCV PTE G18U (structured_RNA)
RNA: B1 RNA with C18U
As to B2, in the data set with human eIF4E [1], the binding result was “no binding”.

B3: SCV PTE G18A (structured_RNA)
RNA: B1 RNA with C18A
In turn, B3 showed a Kd with human eIF4E [2] of 6200 ± 900 nM.

B4: 5' capped RNA (ssRNA)
RNA: GGGGUCUCUCUUGUCGAGAGGCAAGGAACCC
modifications: 5' cap (m7G)
B4 showed a Kd with human eIF4E [3] of 76 ± 3 nM.

B5: SCV PTE WT (structured_RNA)
RNA: GGUUGCUCGACUGUGAGGGGACCUACCCACUGUGCUGCCACACAGGAACUUCCAACCUUCGGGUGGCGAGGUAGGGCAGAAGAGUGACC
In the case of B5, the dissociation constant (Kd) in the data set with GB1-human eIF4E was 900 ± 236 nM; with human eIF4E [4], 576 ± 56 nM.
